The values below come from patent US20140056903A1 (Regeneron, published 2014).

T1: monkey GFRα3 expressed with a C-terminal myc-myc-hexahistidine tag (monkey (Mf), UniProt O60609 32-374 (human entry), limits assumed)
T1 construct: also called MfGFRα3-mmh; MfGFRα3-mmH
T1 chain: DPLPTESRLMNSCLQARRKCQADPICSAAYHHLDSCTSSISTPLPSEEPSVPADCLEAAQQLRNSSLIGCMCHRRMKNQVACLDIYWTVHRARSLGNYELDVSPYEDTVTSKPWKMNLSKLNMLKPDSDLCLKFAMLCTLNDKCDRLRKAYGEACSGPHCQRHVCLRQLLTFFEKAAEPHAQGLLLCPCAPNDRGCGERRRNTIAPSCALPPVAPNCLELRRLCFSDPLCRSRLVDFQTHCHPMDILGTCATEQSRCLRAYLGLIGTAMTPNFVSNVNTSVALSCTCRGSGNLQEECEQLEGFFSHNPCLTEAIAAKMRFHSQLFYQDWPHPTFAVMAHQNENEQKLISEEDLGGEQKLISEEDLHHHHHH

T2: human GFRα3 expressed with a C-terminal mFc tag (human)
T2 construct: also called hGFRα3-mFc
T2 chain: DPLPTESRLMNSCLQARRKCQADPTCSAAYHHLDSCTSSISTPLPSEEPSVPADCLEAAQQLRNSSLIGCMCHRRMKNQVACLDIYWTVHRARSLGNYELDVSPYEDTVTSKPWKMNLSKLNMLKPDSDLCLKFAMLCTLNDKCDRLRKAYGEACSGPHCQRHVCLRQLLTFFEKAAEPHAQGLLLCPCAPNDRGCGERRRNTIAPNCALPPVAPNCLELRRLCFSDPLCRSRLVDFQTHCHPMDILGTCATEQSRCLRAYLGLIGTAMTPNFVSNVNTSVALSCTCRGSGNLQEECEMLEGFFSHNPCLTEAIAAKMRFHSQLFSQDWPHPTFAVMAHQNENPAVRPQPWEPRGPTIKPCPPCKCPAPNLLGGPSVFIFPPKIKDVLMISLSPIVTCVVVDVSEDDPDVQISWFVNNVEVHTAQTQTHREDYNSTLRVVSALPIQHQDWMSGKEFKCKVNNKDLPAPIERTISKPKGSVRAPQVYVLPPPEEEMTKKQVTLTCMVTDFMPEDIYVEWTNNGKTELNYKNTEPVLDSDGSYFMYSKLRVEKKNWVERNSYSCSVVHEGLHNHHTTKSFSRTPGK

B1: H4H2243N2 (antibody, human IgG4, V domains shown)
VH: QVQLVQSGAEVKKPGASVKVSCKASGYTFTSYGIIWVRQAPGQGLEWMGWISGYNGNTNYAQNLQGRVTMTTDTSTTTAYMELRSLRSDDTAVYYCARWGIATRPYYYYGMDVWGQGTTVTVSS
VL: DIQMTQSPSSLSASVGDRVTITCRASQDITNYLAWFQQKPGKAPKSLIYAASSLQSGVPSKFSGSGSGTDFTLTISSLQPEDFATYYCQQYNSYPPTFGPGTKVDIK
notes: human IgG4 Fc (H4H)
B2: H4H2212N (antibody, human IgG4, V domains shown)
VH: EVQLLESGGGLVQPGGSLRLSCAASGFTFSSYAMSWVRQGPGKGLEWVSGISGSGGSTYNADSVKGRFTISRDNSKNTLYLQMNSLRAEDTAVYYCAKDSGTYWYYFDYWGQGILVTVSS
VL: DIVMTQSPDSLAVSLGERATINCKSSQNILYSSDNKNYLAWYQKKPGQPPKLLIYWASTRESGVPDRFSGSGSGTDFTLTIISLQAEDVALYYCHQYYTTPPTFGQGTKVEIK
notes: human IgG4 Fc (H4H)
B3: H4H2344S (antibody, human IgG4, V domains shown)
VH: EVQLVESGGGVVQPGRSLRLSCAASGFSFSDYVMHWVRQAPGKGLEWVASIWFDGSNEFYADSVKGRFTISRDNSKNTLFLQMNSLRAEDTAVYYCAKKGVLVATSAFDIWGQGTMVTVSS
VL: DIQMTQSPSSLSASVGDRVTITCRASQSINNYLNWYHQKPGKAPKLLIYAASSLQSGVPSRFSGSGSGTDYTLTISSLQPEDFGNYYCQQSYRTSMYTFGQGTKVEIK
notes: human IgG4 Fc (H4H)
B4: H4H2354S (antibody, human IgG4, V domains shown)
VH: B3 VH with E1Q
VL: B3 VL with M4L
notes: human IgG4 Fc (H4H); also called H4H2354S-1
B5: H4H2346S (antibody, human IgG4, V domains shown)
VH: B3 VH with E1Q
VL: B3 VL with D1E, Q3V
notes: human IgG4 Fc (H4H)
B6: H4H2293P (antibody, human IgG4, V domains shown)
VH: B3 VH with E1Q, F59L, D109H
VL: B3 VL with D1A, S28N, K45N, R93S, V105L
notes: human IgG4 Fc (H4H)
B7: H4H2294S (antibody, human IgG4, V domains shown)
VH: EVQLVESGGGLVQPGGSLRLSCAASGFTFSSYAMSWVRQAPGKGLEWVSVISGSGGSTYYADAVKGRFTISRDNSKHTLYLQMNSLRAEDTAVYYCTKPSSYSSSNFYYGMDVWGQGSTVTVSS
VL: DIQLTQSPSSVSASVGDRVTITCRASQGISSWLAWYQQKPGKAPKLLIYAASSLQSGVPSRFSGSGSGTDFTLTISSLQPEDFATYYCQQTNSFPFPFGPGTKVDIK
notes: human IgG4 Fc (H4H)
B8: H4H2291S (antibody, human IgG4, V domains shown)
VH: EVQLVESGGGLVQPGESLRLSCAASGFTFSNYAMSWVRQAPGKGLEWVSVISGSGGSTYYADSVKGRFTMSRDNSKNTLYLQMNSLRAEDTAVYYCAKPPSRAARYFNYGMDVWGQGTTVTVSS
VL: B7 VL with D1A, Q3R, L4M, T91A, P97T, P100G, D105E
notes: human IgG4 Fc (H4H)
B9: H4H2296S (antibody, human IgG4, V domains shown)
VH: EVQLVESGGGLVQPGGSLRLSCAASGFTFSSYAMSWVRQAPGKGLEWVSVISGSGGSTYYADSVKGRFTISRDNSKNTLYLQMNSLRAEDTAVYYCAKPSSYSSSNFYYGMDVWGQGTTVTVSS
VL: B7 VL with Q3V, L4M, Q55R, S76T, Q90H, P97T, D105E
notes: human IgG4 Fc (H4H)
B10: H4H2295S (antibody, human IgG4, V domains shown)
VH: B7 VH with P14A, A23V, V50A, Y60S, A63S, H77N, S118T
VL: B7 VL with L4M, A50T, G68R, F94L, F96L, P97T, D105E
notes: human IgG4 Fc (H4H)
B11: H4H2355S (antibody, human IgG4, V domains shown)
VH: EVQLVESGGGLVQPGGSLRLSCAASGFTFSSYAMSWVRQVPGKGLEWVSAISGSGDNTYNAESVKGRFTISRDNSKNMLYLQMNSLRAEDTAVYYCAKTKFSSSLLFDYWGQGTLVTVSS
VL: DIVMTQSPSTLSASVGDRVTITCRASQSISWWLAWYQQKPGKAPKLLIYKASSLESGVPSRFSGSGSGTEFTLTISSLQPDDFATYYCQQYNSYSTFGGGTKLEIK
notes: human IgG4 Fc (H4H)

Changes are numbered by the printed parent chain. Names and notes keep the numbering of the source.

For one assay, the target named is T3, human GFRα3 expressed with a C-terminal myc-myc-hexahistidine tag (human, UniProt O60609 32-374, biotinylated (sites not given) in ELISA format 2 and in the Octet cross-competition; not in SPR).
T3 construct: also called hGFRα3-mmh; hGFRα3-mmH
Briefly: blocking ELISA 2, biotin-hGFRα3-mmH to coated hARTEMIN-mmH + hRET-10His. The procedure: The equilibrated sample solutions were then transferred to the hARTEMIN-mmH-coated plate. […] Absorbance was recorded at 450 nm on a Victor X5 plate reader (Perkin Elmer) to determine the amount of free hGFRα3-hFc in the pre-equilibrated hGFRα3-hFc-antibody solutions that was able to bind to the plate coated with hARTEMIN-mmH. IC₅₀ values, defined as the concentration of antibody required to reduce the signal from a constant concentration of hGFRα3-hFc by 50%, were calculated from the data using Prism software from GraphPad. The absorbance measured at the constant amount of 120 pM hGFRα3-hFc in the absence of anti-GFRα3 antibody is defined as 0% blocking and the absorbance with no added hGFRα3-hFc is defined as 100% blocking. The observed absorbance in the wells containing the highest antibody concentration was used to calculate the maximum blocking percent shown in the table.
In the second ELISA format, the plates, samples and data were processed similarly as for the first format except both hARTEMIN-mmH and human RET with a C-terminal 10 histidine tag (hRET-10His; R&D Systems, #1168-CR/CF) were coated for the blocking ELISA experiment. The 96-well microtiter plates were coated with a mixture of 1.2 ug/ml hARTEMIN-mmH and 6.9 ug/ml hRET-10His proteins in PBS overnight at 4° C. and then blocked with a solution of 0.5% (w/v) BSA. A constant amount of biotinylated human GFRα3 with a C-terminal myc-myc-hexahistidine tag (biotin-hGFRα3-mmH; SEQ ID:370) at 1 nM was pre-mixed with varied amounts of anti-GFRα3 antibodies, ranging from 0 to ˜100 nM in serial dilutions, followed by a 1 hour incubation at RT to allow antibody-biotin-hGFRα3-mmH binding to reach equilibrium. The equilibrated samples were then transferred to the coated plate. After 1 hour of binding, the plate was washed, then the bound biotin-hGFRα3-mmH was detected using HRP conjugated streptavidin (Pierce, #N200), and colorimetric signals were developed using TMB HRP substrates.
For orientation: IC50 means the midpoint of a concentration-inhibition curve. With B1, the “% max blocking” value was found to be 95% and the concentration for half-maximal inhibition (IC50) is 1120 pM.

For B2, the “% max blocking” value stood at 99% and the IC50 came out at 403 pM.

As to B3, the “% max blocking” value is 100% and the IC50 amounted to 459 pM.

In the case of B4, the “% max blocking” value is 97% and the IC50 worked out at 1320 pM.

With B5, the “% max blocking” value was found to be 99% and the IC50 was 797 pM.

On to B6, for which the “% max blocking” value is 95% and the IC50 amounted to 7380 pM.

Take B7: the “% max blocking” value is 95% and the IC50 came to 952 pM.

Another assay concerns the target T1, monkey GFRα3 expressed with a …. Briefly: SPR, Ab captured, 25C. The essentials: (§1)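 Antibodies captured on anti-mouse or anti-human IgG CM5 surfaces, in HBS-EP or PBS-P20 at pH 7.4. mmh-tagged GFRα3 injected at 200–7.4 nM and Fc-tagged at 100–3.7 nM, with association up to 4 min and dissociation up to 20 min. Data fitted 1:1; KD=kd/ka, t1/2=ln2/(60*kd).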
Background: In SPR one partner is held on a chip, and binding of the other changes the refractive index at the surface.
As usually defined, the Kd is the constant that tells how readily two partners part at equilibrium. Usually koff stands for the rate constant with which the complex falls apart. One may read the kon as the second-order rate constant of association. In turn, B3 gave an equilibrium dissociation constant (Kd) of 1100 pM, a dissociation rate constant (koff) of 0.000115 s⁻¹, an association rate constant (kon) of 104000 M⁻¹ s⁻¹ and a t1/2 of 1.68 h.

The molecule B4 had a dissociation constant (Kd) of 574 pM, a koff of 6.23e-05 s⁻¹, an on-rate (kon) of 109000 M⁻¹ s⁻¹ and a t1/2 of 3.08 h.

With B5, the Kd was found to be 556 pM, the dissociation rate constant (koff) is 5.98e-05 s⁻¹, the kon was 108000 M⁻¹ s⁻¹ and the t1/2 worked out at 3.22 h.

For B6, binding was characterised by a dissociation constant (Kd) of 144 pM, the off-rate constant (koff) amounted to 4.17e-05 s⁻¹, the association rate constant (kon) was found to be 290000 M⁻¹ s⁻¹ and the t1/2 amounted to 4.62 h.

B8 showed a Kd of 1850 pM, a dissociation rate constant (koff) of 0.000279 s⁻¹, an on-rate constant (kon) of 151000 M⁻¹ s⁻¹ and a t1/2 of 0.683 h.

B9: binding was characterised by a dissociation constant (Kd) of 3370 pM, the koff turned out to be 0.000651 s⁻¹, the on-rate (kon) amounted to 193000 M⁻¹ s⁻¹ and the t1/2 is 0.3 h.

Molecule B10 registered a Kd of 5320 pM, a dissociation rate constant (koff) of 0.000973 s⁻¹, an on-rate (kon) of 183000 M⁻¹ s⁻¹ and a t1/2 of 0.2 h.

Regarding B7, the dissociation constant Kd stood at 627 pM, the koff stood at 0.000204 s⁻¹, the kon was 325000 M⁻¹ s⁻¹ and the t1/2 amounted to 0.95 h.

Take B11: the Kd came to 649 pM, the koff was 6.78e-05 s⁻¹, the on-rate constant (kon) is 105000 M⁻¹ s⁻¹ and the t1/2 amounted to 2.83 h.

Another assay addresses T2, human GFRα3 expressed with a C-terminal …. In words: SPR, Ab captured, 25C. The essentials: as §1
B3: binding was characterised by a dissociation constant (Kd) of 2.69 pM, the koff turned out to be 1.56e-06 s⁻¹, the kon was determined as 579000 M⁻¹ s⁻¹ and the t1/2 was found to be 123 h.

In turn, B4 came in with a dissociation constant Kd of 18.9 pM, a koff of 1.09e-05 s⁻¹, an on-rate constant (kon) of 580000 M⁻¹ s⁻¹ and a t1/2 of 17.6 h.

B5: the Kd worked out at 22.2 pM, the koff came to 1.44e-05 s⁻¹, the kon worked out at 647000 M⁻¹ s⁻¹ and the t1/2 turned out to be 13.4 h.

For the molecule B6, the Kd amounted to 1.59 pM, the dissociation rate constant (koff) was 1.93e-06 s⁻¹, the association rate constant (kon) is 1.22e+06 M⁻¹ s⁻¹ and the t1/2 came out at 99.8 h.

Consider B8, for which binding was characterised by a dissociation constant (Kd) of 4.63 pM, the koff came to 4.78e-06 s⁻¹, the on-rate (kon) was 1.03e+06 M⁻¹ s⁻¹ and the t1/2 is 40.3 h.

B9 displayed a Kd of 3.37 pM, a koff of 4.17e-06 s⁻¹, an on-rate (kon) of 1.24e+06 M⁻¹ s⁻¹ and a t1/2 of 46.2 h.

For B10, the affinity, expressed as Kd, was 1.57 pM; the koff is 1.69e-06 s⁻¹; the kon turned out to be 1.08e+06 M⁻¹ s⁻¹; the t1/2 is 114 h.

Molecule B7 yielded a Kd of 4.63 pM, a koff of 5.63e-06 s⁻¹, an on-rate (kon) of 1.22e+06 M⁻¹ s⁻¹ and a t1/2 of 34.2 h.

As to B11, the dissociation constant (Kd) was no more than 1.64 pM, the koff is no more than 1e-06 s⁻¹, the kon was determined as 611000 M⁻¹ s⁻¹ and the t1/2 came out at 192 h.
